Test results reported in patent US20190060394A1 (HONG KONG BAPTIST UNIVERSITY, published 2019).
Where no end group is shown, it is not given here. [ ]: non-standard residue; d: D form. Ahx = NCCCCCC(=O)O

Legend:
[1] = target: bovine serum albumin (BSA) (bovine) (UniProt P02769); assay: luminescence titration, selectivity assay
[2] = target: T1, Wild type EBNA1 protein (379-641 a.a.) fusing with glutathione S-transferase (Epstein-Barr virus, UniProt P03211 379-641); assay: luminescence titration in PBS, same conditions as L2P4
T1 construct: Expressed in E. coli (BL21), purified on glutathione sepharose; also called WT-EBNA1; WT EBNA1; not shown: glutathione S-transferase (GST) fusion partner
T1 sequence: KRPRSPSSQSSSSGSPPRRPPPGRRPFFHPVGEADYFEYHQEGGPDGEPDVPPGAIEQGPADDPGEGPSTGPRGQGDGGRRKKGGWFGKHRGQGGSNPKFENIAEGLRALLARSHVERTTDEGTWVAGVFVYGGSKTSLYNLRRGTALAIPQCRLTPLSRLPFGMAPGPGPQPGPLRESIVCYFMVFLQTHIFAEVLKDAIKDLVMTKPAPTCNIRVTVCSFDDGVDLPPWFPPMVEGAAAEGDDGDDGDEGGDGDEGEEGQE

[3] = target: T1, Wild type EBNA1 protein (379-641 a.a.) …; assay: luminescence titration in PBS, double logarithm regression
[4] = target: T2, EBNA1 as present in the nucleus of EBV-positive cells (C666-1, NPC43, Raji) (Epstein-Barr virus, UniProt P03211 1-641); assay: cell-based or functional assay
T2 sequence: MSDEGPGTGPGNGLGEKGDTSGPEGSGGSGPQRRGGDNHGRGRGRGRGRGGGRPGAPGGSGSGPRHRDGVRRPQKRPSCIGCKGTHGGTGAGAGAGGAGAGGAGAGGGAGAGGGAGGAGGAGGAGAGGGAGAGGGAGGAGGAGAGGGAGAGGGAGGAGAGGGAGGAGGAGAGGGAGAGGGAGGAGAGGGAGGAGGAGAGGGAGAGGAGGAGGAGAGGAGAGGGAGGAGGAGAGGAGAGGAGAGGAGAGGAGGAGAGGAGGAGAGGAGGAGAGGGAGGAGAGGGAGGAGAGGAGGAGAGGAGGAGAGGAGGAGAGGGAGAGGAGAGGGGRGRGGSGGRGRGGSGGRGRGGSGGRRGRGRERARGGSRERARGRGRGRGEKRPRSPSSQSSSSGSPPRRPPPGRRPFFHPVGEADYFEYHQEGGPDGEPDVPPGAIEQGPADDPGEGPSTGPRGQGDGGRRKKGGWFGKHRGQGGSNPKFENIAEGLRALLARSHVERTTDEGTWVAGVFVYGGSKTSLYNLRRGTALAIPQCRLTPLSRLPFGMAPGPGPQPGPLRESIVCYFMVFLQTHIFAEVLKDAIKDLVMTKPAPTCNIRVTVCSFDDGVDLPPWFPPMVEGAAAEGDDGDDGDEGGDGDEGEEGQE

[5] = target: T3, EBNA1-Y561A (EBNA1 379-641 GST fusion with point mutation Y561A) (Epstein-Barr virus, UniProt P03211 379-641); assay: luminescence titration, selectivity assay
T3 construct: Made by site-directed mutagenesis of the WT construct; not shown: glutathione S-transferase (GST) fusion partner
T3 sequence: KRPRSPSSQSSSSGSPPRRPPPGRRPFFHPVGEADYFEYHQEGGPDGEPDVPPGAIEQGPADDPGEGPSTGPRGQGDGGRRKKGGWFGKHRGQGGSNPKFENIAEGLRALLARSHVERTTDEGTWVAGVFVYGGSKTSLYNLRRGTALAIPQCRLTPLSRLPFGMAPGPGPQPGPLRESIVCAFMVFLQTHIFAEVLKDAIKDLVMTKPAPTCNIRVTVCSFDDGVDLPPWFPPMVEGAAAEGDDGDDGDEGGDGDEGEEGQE

[6] = target: T4, EBNA1-M563A (EBNA1 379-641 GST fusion with point mutation M563A) (Epstein-Barr virus, UniProt P03211 379-641); assay: luminescence titration, selectivity assay
T4 construct: Made by site-directed mutagenesis of the WT construct; not shown: glutathione S-transferase (GST) fusion partner
T4 sequence: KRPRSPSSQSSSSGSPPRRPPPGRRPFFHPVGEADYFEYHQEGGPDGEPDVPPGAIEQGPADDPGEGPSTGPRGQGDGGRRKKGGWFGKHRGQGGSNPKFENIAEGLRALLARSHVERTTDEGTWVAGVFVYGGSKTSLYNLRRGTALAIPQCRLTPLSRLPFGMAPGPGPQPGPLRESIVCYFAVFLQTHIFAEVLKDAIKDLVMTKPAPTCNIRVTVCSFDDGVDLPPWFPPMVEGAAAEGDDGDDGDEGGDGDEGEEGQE

[7] = target: T5, EBNA1-F565A (EBNA1 379-641 GST fusion with point mutation F565A) (Epstein-Barr virus, UniProt P03211 379-641); assay: luminescence titration, selectivity assay
T5 construct: Made by site-directed mutagenesis of the WT construct; not shown: glutathione S-transferase (GST) fusion partner
T5 sequence: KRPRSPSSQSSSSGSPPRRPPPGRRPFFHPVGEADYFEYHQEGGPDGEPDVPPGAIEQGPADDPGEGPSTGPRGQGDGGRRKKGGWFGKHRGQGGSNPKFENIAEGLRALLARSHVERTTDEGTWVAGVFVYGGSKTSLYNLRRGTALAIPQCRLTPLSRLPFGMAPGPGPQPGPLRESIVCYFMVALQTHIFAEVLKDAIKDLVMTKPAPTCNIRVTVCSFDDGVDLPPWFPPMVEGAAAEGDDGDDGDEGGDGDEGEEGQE

[8] = target: T6, EBNA1-3A (EBNA1 379-641 GST fusion with YFMVF mutated to FFAVA) (Epstein-Barr virus, UniProt P03211 379-641); assay: luminescence titration, selectivity assay
T6 construct: also called EBNA1-3A mutant; mutant EBNA1; not shown: glutathione S-transferase (GST) fusion partner
T6 sequence: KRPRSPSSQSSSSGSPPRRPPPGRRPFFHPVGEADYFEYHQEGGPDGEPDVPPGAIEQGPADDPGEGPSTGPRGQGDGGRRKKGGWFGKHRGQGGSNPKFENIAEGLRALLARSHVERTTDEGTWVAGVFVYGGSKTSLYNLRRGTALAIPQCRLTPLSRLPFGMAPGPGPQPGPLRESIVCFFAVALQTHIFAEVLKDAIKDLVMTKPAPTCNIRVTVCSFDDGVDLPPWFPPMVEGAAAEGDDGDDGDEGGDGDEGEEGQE

[9] = target: T1, Wild type EBNA1 protein (379-641 a.a.) …; assay: luminescence titration in PBS buffer

Chain of bovine serum albumin (BSA) (bovine) (P02769 25-607 limits assumed): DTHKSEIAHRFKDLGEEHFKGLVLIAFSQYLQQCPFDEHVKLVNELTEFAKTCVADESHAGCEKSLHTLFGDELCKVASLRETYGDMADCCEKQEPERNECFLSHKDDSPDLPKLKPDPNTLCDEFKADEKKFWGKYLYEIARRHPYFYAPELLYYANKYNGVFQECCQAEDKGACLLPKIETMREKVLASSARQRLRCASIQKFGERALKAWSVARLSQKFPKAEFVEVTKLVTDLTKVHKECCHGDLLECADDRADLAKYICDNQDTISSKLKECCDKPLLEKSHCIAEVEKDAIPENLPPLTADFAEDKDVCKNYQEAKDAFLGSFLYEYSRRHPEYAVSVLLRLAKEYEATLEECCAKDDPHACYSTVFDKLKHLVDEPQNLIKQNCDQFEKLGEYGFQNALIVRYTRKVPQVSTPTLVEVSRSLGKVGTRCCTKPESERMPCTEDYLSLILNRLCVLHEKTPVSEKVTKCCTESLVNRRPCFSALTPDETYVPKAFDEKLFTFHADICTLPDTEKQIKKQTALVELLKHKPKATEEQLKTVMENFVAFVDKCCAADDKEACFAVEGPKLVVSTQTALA

L2P4 (peptide conjugate: L2, 4-(4-(diethylamino)styryl)-N-carboxymethylpyridinium, coupled through an amide bond to peptide P4, CAhxYFMVFGGRrRK)
log Kassoc [1]: 4.7 log Kassoc

B1: L2P3 (peptide conjugate: L2 coupled to peptide P3, CAhxRrRKGGYFMVF) (peptide)
peptide: C[Ahx]R[dR]RKGGYFMVF-NH2
modifications: not fully specified (N-terminus); printed as CAhxRrRKGGYFMVF; also: L2 dye coupled to the peptide, site not given here
notes: Fluorescent dye-peptide conjugate
increase in emission intensity (fold) [2]: 4.7 fold | binding ratio [3]: 1 probe : WT-EBNA1

B2: L2P4 (peptide conjugate: L2, 4-(4-(diethylamino)styryl)-N-carboxymethylpyridinium, coupled through an amide bond to peptide P4, CAhxYFMVFGGRrRK) (peptide)
peptide: CXYFMVFGGRXRK
modifications: L2 (4-(4-(diethylamino)styryl)-N-carboxymethylpyridinium) coupled to the peptide through an amide bond; Ahx = 6-aminohexanoic acid (position 2); r = D-arginine (position 11); synthesised on Rink amide resin
notes: Fluorescent dye-peptide conjugate; also called formula (I)
in vitro emission intensity in the nucleus of EBV-positive C666-1 cells (confocal microscopy), L2P4 against L2P3 [4]: 3 fold over L2P3 | log Kassoc [5]: 5.1 log Kassoc | log Kassoc [6]: 3.6 log Kassoc | log Kassoc [7]: 4.3 log Kassoc | log Kassoc [8]: 3.9 log Kassoc

B3: L2P2 (peptide conjugate: L2 coupled to peptide P2, YFMVF) (peptide)
peptide: YFMVF-NH2
modifications: not fully specified (N-terminus); also: L2 dye coupled to the peptide, site not given here
notes: as for B1
binding result [9]: no binding
